From patent US20200009222A1, “[…] ACTIVE COMPLEXES” (HAMLET PHARMA AB, priority 2016, published 2020)

Legend:
[1] = tested on: MB49 bladder tumor; assay: Real-time in vivo fluorescence imaging and tissue uptake of labeled complex; conditions: tumor-bearing mice; intravesical; 24 hours
Description: HAMLET or peptides were labeled using VivoTag 680XL Protein Labeling Kit (Perkin Elmer). Mice were anaesthetized using Isofluorane and 100 ul solution of labeled HAMLET or peptide was instilled in bladders of tumor bearing or healthy control mice.
Hair was removed from the ventral sides of anesthetized mice. Mice were imaged at various time points using an IVIS Spectrum imaging system (Perkin Elmer). Signals from HAMLET or peptides were acquired at fluorescent settings with 680 nm excitation. For tissue specific uptake, Alexa-568 labeled peptide was instilled in bladders of tumor bearing or healthy control mice. Mice were sacrificed after 24 hours of treatment and bladder sections were imaged using Zeiss AX10 fluorescence microscope.
The retention of alpha-peptide oleate complexes by the tumor was visualized, by in vivo imaging in mice with palpable tumors. VivoTag 680XL labeled alpha1 peptide-oleate complexes were instilled intra-vesically on day 8 after the inoculation of MB49 cells and the fluorescence signal was monitored longitudinally, using the IVIS spectrum in vivo imaging system.
To verify that the alpha-peptides are retained by the bladder tumor, Alexa Fluor-568 labeled alpha1 peptide-oleate complexes were instilled into the bladders of tumor bearing mice (day 8, palpable tumors).

[2] = tested on: bladder cancer; conditions: prior clinical study; cited from earlier work
[3] = tested on: SC-35; assay: SC-35 phosphorylation, Western blot analysis and flow cytometry; format: cell-based
Description: Cells were grown on 6-well plates (3×10^5/well, TPP) overnight. Cells treated with HAMLET were lysed with mammalian NP-40 lysis buffer supplemented with protease and phosphatase inhibitors (both from Roche Diagnostics). […] The anti-GAPDH (1:1,000, sc-25778, Santa Cruz) and anti-Histone H3 (ab1791, Abcam) were used as loading controls. Primary antibodies followed by HRP-conjugated secondary anti-rabbit or anti-mouse antibodies (1:4000, 5% NFDM, Cell Signaling) and visualized using ECL Plus detection reagent (GE Health Care). Band intensities were quantified using the ImageJ software 1.46r (NIH).

[4] = tested on: histone H3; assay: ProtoArray Human Protein Microarray interaction profiling; format: binding; conditions: screen of 8000 human proteins
Description: (§1) ProtoArray® Human Protein Microarray version 4.0 (Invitrogen) was performed as previously described^20, which consists of approximately 8,000 human proteins. AlexaFluor®568-labeled HAMLET was added to protein arrays at two concentrations (5 and 50 ng/μl) in duplicate, and the fluorescence was measured by using GenePix 6.0. Negative control array was incubated with buffer alone and scanned at a wavelength of 532 nm. […] The interactions were quantified as fold change (FCs) over the average negative control value.

[5] = tested on: PKC isoforms; assay: as above; format: binding; conditions: screen of 8000 human proteins
Description: as §1

[6] = tested on: Protein kinase C (PKC) isoforms; assay: Kinex KAM-850 phospho-antibody array; format: cell-based, human; conditions: 1 hour, 21 uM
Description: The in vivo kinase activity assay was performed using Kinex™ KAM-850 Antibody Microarray Services (Kinexus, Canada). Untreated and HAMLET-treated samples were performed in duplicates. Raw quantification data and basic analyses for individual samples were provided. Reference data, consolidated data of over 200 samples was also provided as reference, confirming the validity of the assay performed. Targets with percent fold change over control>10 were significant. The targets were identified in the human profiling human activity-based phosphorylation network (Molecular Systems Biology 9:655).

[7] = tested on: adherent lung carcinoma cells (A549); assay: Live cell imaging of Alexa-Fluor labeled HAMLET uptake; format: cell-based, human; conditions: 35 μM, 1 hour
Description: For uptake experiments lung carcinoma cells were treated with Alexa-488 or 568 labeled HAMLET, washed and visualized under confocal microscope live. Localization of HAMLET in lysosomes was detected by pre-labelling the cells with lysotracker (LysoTracker Green DND-26, Thermo Fisher). For peptide or peptide-oleate complexes uptake, lung carcinoma cells were treated with individual biotinylated peptide alone or mixed with sodium oleate. Cells were fixed (2% PFA, 10 min), permeabilized (0.25% Triton X-100) and blocked with FCS (10% in PBS). The biotinylated peptides were detected with Alexa-488 or 568 labeled streptavidin conjugate (1:200, 5% FCS/PBS, 1 hour). The accumulation of peptide or peptide oleate complexes in lysosomes was investigated by treatment of lung carcinoma cells with Alexa-568 labeled peptide (20%) or peptide-oleate complexes for 1 hour. Cells were counter stained with lysosomal marker, Lysotracker. Slides were examined using LSM 510 META or LSM 800 laser scanning confocal microscope (Carl Zeiss).
During live cell imaging of Alexa-Fluor labeled HAMLET (35 μM, 1 hour) and adherent lung carcinoma cells (A549), two distinct cellular staining patterns (FIG. 1a) were detected. […] Nuclear speckles reside in the inter-chromatin space of eukaryotic nuclei and serve as important nodes in the splicing of pre-mRNA and transport of spliced RNA. […]

B1: HAMLET (protein)
chain: KQFTKCELSQLLKDIDGYGGIALPELICTMFHTSGYDTQAIVENNESTEYGLFQISNKLWCKSSQVPQSRNICDISCDKFLDDDITDDIMCAKKILDIKGIDYWLAHKALCTEKLEQWLCEKL
[1]
  Fluorescence signal of VivoTag 680XL labeled complex, retention: retention
[2]
  Toxic effects: not detected
  Tumor response to intravesical instillations: massive tumor cell exfoliation
[3]
  SC-35 phosphorylation: inhibited
[4]
  Affinity for histone H3 in proteomic screen: confirmed
[5]
  Binding to PKC isoforms in proteomic screen: identified as HAMLET targets
[6]
  PKC isoforms with inhibited phosphorylation: 5/6
[7]
  Population I cells (membrane blebbing, diffuse cytoplasmic staining, nuclear speckle accumulation): 51%
  Population II cells (exclusively cytoplasmic, lysosomal uptake): 47%
